Reference: publication doi:10.1101/2021.10.06.463369

Target: T1, AITR6-His (Arabidopsis thaliana, UniProt Q9FGW7 1-302)
T1 sequence: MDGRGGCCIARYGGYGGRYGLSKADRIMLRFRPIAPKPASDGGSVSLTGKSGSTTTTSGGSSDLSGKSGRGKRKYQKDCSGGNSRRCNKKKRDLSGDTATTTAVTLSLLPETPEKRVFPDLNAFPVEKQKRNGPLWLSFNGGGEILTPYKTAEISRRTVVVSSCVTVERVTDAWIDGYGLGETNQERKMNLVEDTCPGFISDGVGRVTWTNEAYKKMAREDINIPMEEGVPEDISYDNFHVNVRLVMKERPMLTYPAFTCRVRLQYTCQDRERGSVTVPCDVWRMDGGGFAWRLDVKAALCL
Assay: EMSA

B1: F16 (dsDNA)
DNA 1: ACTCATAAAATATGTCTTTGATTTTTTGTAGTAAT
DNA 2: ATTACTACAAAAAATCAAAGACATATTTTATGAGT
  binding result: no binding
